In article PMC10770758, “Protocatechuate hydroxylase is a novel group A flavoprotein monooxygenase with a unique substrate recognition mechanism” (The Journal of Biological Chemistry, 2023) one finds Km, kcat and kcat/Km data, which are given here for 3 proteins.

Substrate in data set [1]: O=C(O)c1ccc(O)c(O)c1
Nature of the data set: purified protein. The settings on record: apparent, 0.25 mM NADPH, 20 mM Tris-HCl pH 7.9, 25 °C.

Substrate in data set [2]: O=C(O)c1ccc(O)cc1
In words: purified protein. The settings on record: apparent, 0.25 mM NADPH, 20 mM Tris-HCl pH 7.9, 25 °C.

B1: XaPobA (Xylophilus ampelinus) (protein)
chain: MRTQVGIVGAGPAGLMLAHLLRREGIDAVVIERAAREHVRTRLRAGVLEQGTVEMLREAGVGGRIDAVGMEMHAIDFRFGGRSHRLDFHEASGGRRAWVYPQHEVVTDLMSACDAGDVPILYEAPVERIEGLEDDRARIVFGQDGAAGEITCDFVAGCDGFRGVSRGSMPAGIARGYDRIYPFGWLGILADAPPASPDVTWGCSDRGFAMMSMRSPTVTRLYLQCEPDEDPDAWSDDRIWSELHRRLDVEGMPSLREGPIRDKGVTAMRSFLSEPMQHGRLFLAGDAAHIVPPTGAKGLNSAMADIKVLAAALVDHYRHGRSDRLATYSERCLRRMWLVQRFSAALCTMVHQFPGQNEFVRRLQRADLDYMTGTHAGRLQFAENFTGLPIE
Turning to B1, the Km in the data set “purified protein [1]” is on record as 3.7 ± 0.9 × 10^−1 mM; in the data set “purified protein [2]”, 4.3 ± 0.3 × 10^−1 mM.

B2: PkPobA (Pigmentiphaga kullae) (protein)
chain: MSERTQVGIVGAGPAGLLLSHLLHREGIESIVFDNRSREHVQQRLRAGVLEQGTVDLLAEVGLGERMRRLGMPQTSLDFRYAQASHRIDFAQEIGRTVMVYPQHEVVHDLIEARLAAGGDLRFDTPVTAIRDLEGPSPTILAGPEGRPVRCDFIAGCDGFHGICRDAIPASVMKAYDRVYPFGWLGILAEVPPAAPDVTWGCHETGFAMLSFRSPTRSRLYLQCEPDDDPDNWSDDRIWSALHERLDVPGMPPLIEGPIVQKGVTAMRSFQVEPLRHGALFLAGDAAHIVPPTGAKGLNSAVADIRVLGRALAAYYRQGSTRLLDSYSETCLRRMWLVHRFSAGLCTMVHSFPGQSDFARRLQRADLDYMTGSEPGRRAFSENFTGLPIEA
On to B2, for which, in “purified protein [1]”, the Km is listed as 3.2 ± 0.7 × 10^−1 mM, the kcat turned out to be 1.1 ± 0.1 s⁻¹ and the kcat/Km stood at 3700 ± 600 M⁻¹ s⁻¹. Besides, the Km in “purified protein [2]” was 3.7 ± 1.8 × 10^−1 mM.

B3: PaPobA (Pseudomonas aeruginosa PAO1) (protein)
chain: MKTQVAIIGAGPSGLLLGQLLHKAGIDNVILERQTPDYVLGRIRAGVLEQGMVDLLREAGVDRRMARDGLVHEGVEIAFAGQRRRIDLKRLSGGKTVTVYGQTEVTRDLMEAREACGATTVYQAAEVRLHDLQGERPYVTFERDGERLRLDCDYIAGCDGFHGISRQSIPAERLKVFERVYPFGWLGLLADTPPVSHELIYANHPRGFALCSQRSATRSRYYVQVPLSEKVEDWSDERFWTELKARLPSEVAEKLVTGPSLEKSIAPLRSFVVEPMQHGRLFLAGDAAHIVPPTGAKGLNLAASDVSTLYRLLLKAYREGRGELLERYSAICLRRIWKAERFSWWMTSVLHRFPDTDAFSQRIQQTELEYYLGSEAGLATIAENYVGLPYEEIE
For B3, the Km in the data set “purified protein [1]” is 1.3 ± 0.2 × 10^−1 mM.
